How the values were obtained:
[1] = biological target: human α-thrombin (recombinant) (human) (UniProt P00734); experiment: cell-based or functional assay
[2] = biological target: human α-thrombin (recombinant) (human) (UniProt P00734); experiment: assay not named

time to observe clot formation in blood tubes, 300 µM peptide [1]: 4 h
Ki [2]: > 0.03 µM
Substance: β-variegin (peptide)
